The nanobody polyreactivity screen of Harvey et al. (2022)

Experiment: yeast display, Sf9 membrane polyspecificity reagent, FACS + sequencing; frameworks hold sequencing errors
In short: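 Sorting gates, low and high (top ~1%), were placed on anti-HA fluorescence to track expression and on streptavidin fluorescence to track reagent binding. A clone's polyreactivity label is taken from the gate it came out of. The reagent was 10% biotinylated, detergent-solubilized Sf9 membrane, applied for 1 hour at 4 °C to galactose-induced yeast display cells.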

| Sequence | polyreactivity (PSR sort gate) |
| --- | --- |
| QVQLVESGGGLVQAGGSLRLSSAASGRIFRYYTMGWYRQAPGKERELVATITSDGRTNYADSVNGRFTISRDNAKNSVYLQMNSLKPEDTAVYYCAARYVMGGQGTSRRVGGGYWGQGTQVTVSS | high polyreactivity |
| QVQLVESGGGLVQAGGSLRLSCAASGSTFVDNAMGWYRQAPGKERELVAAISRGGSTHYADSVKGRFTISRDNAKNTVYLQMNSLKPEDTAVYYCNKDTKRLLWFYKYYYWGQGTQVTVSS | high polyreactivity |
| QVQLVESGGGLVQAGGSLRLAVLPPDLPSTLNDRGWYRQAPGKESELVAAITSGGNTYYADSVKGRFTISRDNAKNTVYLQMNSLKPEDTAVYYCAATYYWAWGGVYHSEFDYWGQGTQVTLSS | low polyreactivity |
| QVQLVESGGGLVQAGGSLRLSCAASGYTFTHNAIGWYRQAPGKERELVATIRNSGSRTYYADSVKGRFTISRDNGKNTVYLQMNSLKPEDTAVYYCAARLLYRHFGYWGQGTQVTVSS | high polyreactivity |
| QVQLVESGGGLVQAGGSLRLSCAASGRISVYYAMGWYRQGPGKERELVAAISWRGSTYYADSVKGRFTISRDYAKNTVYIQMNSQKPEDTAVYNSAARSTGYYGRFYYWGQGTQVTVSS | high polyreactivity |
| QVQLVESGGGLVQAGGSLRLSCAASGSTFPVYAMGWYRQAPGKERELVAAISRSGASTYYAASVKGRFTISRDNAKNTVDLQMNSLKPDDTAVYYCARGYQGRLKYEYWGQGTQVTVSS | low polyreactivity |
| QVQLVESGGGLVQAGGSLRLSCAASGLTFLNNAMGWYRQAPGKERELVAAISDGGSTNYADSVKGRFTISRDNAKNTVYLQMNSLKPEDTAVYYCAARVRGDYGHKYYQFDYWGQGTQVTVSS | low polyreactivity |
| QVQLVESGGGLVQAGGSLRLSCASSGRISASYAMGWYRQAPGKERELVAAITGSGGSTYYADSVKGRFTISRDNAKNTVYLQMNSLKPEDTAVYYCAAEPGLSVFFEFDSWGQGTQVTVSS | low polyreactivity |
| QVQLVESGGGLVQAGGSLRLSCAASGRIFAKYAMGWYRQAPGKERELVAAISWGGGSTYYADSVKGRFTISRDNAKNTVYLQMNSLKPEDTAVYYCARRFKYGSTAWRFYYWGQGTQVTVSS | high polyreactivity |
| QVQLVESGGGLVQAGGSLRLSCDASGSIFYRYAMGWYRQAPGKERELVASISSGVSTNYADSVKGRFTISRDNAKNTVYLQMNSLKPEDTAVYYCAAYYRGWSSSYWYPAYNYWGHGTQVTVSS | low polyreactivity |
| QVQLVESGGGLVQAGGSLRLSCGASGSTFPTYAMGWYRQAPGKERELVAVITSSGGRTYYADSVKGRFTISRDNAKNTVYLQMNSLKPEDTAVYYCAKGSGTIYNLYDYWGQGTQVTVSS | high polyreactivity |
| QVQLVESAGGLVQAGGSLRLSCPASGLTFGSYALGWYRQAPGKEREFVAAISWRGGSTYYADSVKGRFTISRDNAKNTVYLQMNSLKPEDTAVYYCAAPVTYGGSPYKYYYWGQGTQVTVSS | high polyreactivity |
| QVQLVESGGGLVQAGGSLRLSCAASGRTFWAYAMGWYRQAPGKERELVAAITTSGGSTNYADSVKGRFTISRDNAKNTVYLQMNSLKPEDTAVYYCNADPTYHVVNGVGYLGQGTQVTVSS | low polyreactivity |
| QVQLVESGGGLVQAGGSLRLSCAASGRTFLTYAMGWYRQAPGKERELVAAISSSGVRTYYADSVKGRFTISRDNAKNTVYLQMNSLKPEDTAVYYCAAVGTGSSLRYDYWGQGSQVTVSS | high polyreactivity |
| QVQLVESGGGLVQAGGSLRLSCAASGRTLAPYAMGWYRQAPGKERELVAISTIGGSTYYADSVKGRFTISRDNAKNTVYLQMNSLKPEDTAVYYCAADGNSTGVYLDGGEGFAYDYWGQGTQVTVSS | low polyreactivity |
| QVQLVESGGALVQAGGSLRLSCAASGSIFVYNAMGWYIPAPGKERELVAAITSDGSTNYADSVKGRFTISRDNATNTVYLQMNSLKPEDNAVYYCNAGNDQYPSFEYDYWGQGTKVTVSS | low polyreactivity |
| QVQLVESGGGLVQAGGSLRLSCAASGRTFRRNAMGWYREAPGKERELVASINRGGGKNYADSVKGRFTISRDNAKNTVYLQMNSLKPEDTAVYYCAAVPIAADKANGYDYWGQGTQVTVSS | low polyreactivity |
| QVQLVESGGGLVQAGGSLRLSCAASGNTINFYAMGWYRQAPGKEREMVAAISSGGSTNYADSVKGRFTISRDNAKNTVYLQMNSLKPEDSAVYYCAKDVWYLVYYHWKSNRVWQYDYWGQGTQVTVSS | low polyreactivity |
| QVQLVESGGGLVQAGGSLRLSCAASGRIFELNARGWYSQAPGKERELVAVISSGGNTHYADSVKGRFTISRDNAKNTVYLQMNSLNPEDTAVYYCAAVASKHWGRDYWGQGTQVTVSS | low polyreactivity |
| QVQLVESGGGLVQAGGSLRLSCAASGSTFGPYAMGWYRQAPGKERELVAAISRGGSTYYADSVKGRFTISRDNAKNTVYLQMNSLKPEDTAVYYCAARYVRVGYDYWGQGTQVTVSS | high polyreactivity |
| QVQLVESGGGLVQAGGSLRLICAASGSTFRHYAMGWYRQAPGKERELVAAIRRSGGTTYYADSVKGRFTISRDNAKNTVYLHMNSLKPEDTAVYYCAARLTVRKLVRFDYWGQGTQVTVSS | low polyreactivity |
| QVQLVESGGGLVQAGGSLRLSCAASGRTFGPYAMGWYRQAPGKERELVAAISRSGSSTYYADSVKGRFTISRDTGKNNVYLQMNSLKPEDTAVYDCAVARSSPEYYYWGQGTQVTVSS | high polyreactivity |

| Sequence | polyreactivity (PSR sort gate) |
| --- | --- |
| QVQLVESGGGLVQAGGSLRLSCAASGRIFYSYAMGWYRQAPGKERELVATISSAGSTYYADAVKGRFTISRDNAKNTVYLQMNSLKPEDTAVYYCAARRPRRYGYWGQGTQVTVSS | high polyreactivity |
| QVQLVESGGGLVQAGGSLRLSCAASGSIFSFYAMGSYRQAPGKERELVAAISWSGGSTYYADSVKGRFTISRDNAKNTVYLLMNSLKPEDTAVYYCAREKAVSYYGYDHWGQGTQVTVSS | low polyreactivity |
| QVQLVESGGGLVQAGGSLRLSCAASGSSFAGNAMGWYRQAPGKERELVAAIDSSTGSTYYADSVKGRFTISRDNAKNTVYLQMNSLKPEDTAVYYCNKTSFLVKLDYWGQGTQVTLSS | low polyreactivity |
| QVQLVESGGGLVQAGGSLRLSCAASGSIFYDNAMGWYRPAPGKERELVATIRGGGNTYYADSVKGRFTISRDNAKNTVYLQMNSLKPEDTAVYYCSKQSDFPGVPLVYGVYGYDYWGQGTQVTVSS | low polyreactivity |
| QVQLVESGGRVLQAGGSLRLSCAASGRIFSYNDMGWYRQAPGKERELVATITSGDSTISADSVKGRFTISRDNAKNTVYLQMNSLKPEDTAVYYCATDIYGLPVDYWGQGTQVTVSS | low polyreactivity |
| QVQLVESGGGLVQAGGSLRLSCAASGRTFGGNVMGWYRQAPGKERELVAAITWSGGRTYYADSVKGRFTISRDNAKNTVYLQMNSLKPEDTAVYYCNARNGFTVKKFYYWGQGTQVTVSS | high polyreactivity |
| QVQLVESGGGLVQAGGSLRLSCAASGRTFHWYTLGWYRQAPGKEREFVAGINWSGARTYYADSVKGRFTISRDNAKNTVYLQMNSLKPEDTAVYYCNKRDRYRLYGYNYWGQGTQVTVSS | high polyreactivity |
| QVQLVESGGGLVQAGGSLRLSCAASGFTIYRYALGGYRPAPGKERELVAAISKSGVSTYYADSVKGRFTISRDNAKNTVYLLMNSLKPEDTAVYYCAVSLTYRWISFDYWGQGTQVTVSS | high polyreactivity |
| QVQLVESGGGIVQAGGSLRLSCAASGSTFGFYAMGWYRQAPGKERELVAAISSAARTYYADSVKGRFTISRDNAMNTVYLQMNSMKPEDTAVYYCSAEAYHWTSYIGYGGVYYWGQGTKVTVSS | low polyreactivity |
| QVQLVESGGGLVQAGGSLRLSCAASGSIIYRYVMGWYRQAPGKERESVAAISWRGTNTYADSVKGRFTISRDNAKNTVYLQMNSLKPEDTAVYYCAARKWDRYRDFEYWGQGTQVTVSS | high polyreactivity |
| QVQLVESGGGLVQAGGSLRLSCAASGRTFDTYAMGWYRQAPGKEREFVARISYGGGITYYADSVKGRFTISRDNAKNTVYLQMNSLKPEDTAVYYCAARRFRTYDFYYWGQGTQVTVSS | high polyreactivity |
| QVQLVESGGGLVQAGGSLRLSCAASGRTFFPYAMGWYRQAPGKERELVAAITRGGSTNYADSVKGRFTISRDNAKNTVYLQINSLKPEDTAVSYCATVVRYSNARGDYWGQGTQVTVSS | low polyreactivity |
| QVQLVESGGGLVQAGGSLRLSCATTGSTFQVYTMGWNRQAPGKEREFVASISWSGSSTYYADSVKGRFTISRDNAKNTVYLQMNSLKPEDTAVYYCAARARIKYLADPGYYWGQGTQVTVSS | high polyreactivity |
| QVQLVESGGGLVQAGGSLRLSCAASGRTFAWYAMGWYRQAPGKERELVAAISWSSDTTYYADSVKGRFTITRDNAKNTVYLQMNSLKPEETAVYYCAAVFQGYTRKYYYWGQGTQVTVSS | high polyreactivity |
| QVQLVESGGGLDQAGGSLRLSCAASGSTFYKYAMGWYRQAPGNERDLVAGISSSGGNTYYADSVKGRFTISRDNAKNTDYLQMNSLKPEDTAVYYCAARPRYLKEYDYWGQGTQVSVSS | high polyreactivity |
| QVQLVESGGGLVQAGGSLRLTCAASGRIFDGYAMGWYRQPPRKERELVAAISSRGGRTYYADSVKGRFTISRDNAKNTVYLQMNSLKPEDTAVYYCAADDPYGEGDYWGQGTQVTVSS | low polyreactivity |
| HVQLVESGGGLVQAGGSLRLSCAASGSIYHIYSMGRYRQAPGKERELVAAISFSGGSTYYADSVKGRFTISRDNAKNTVYLQMNSLKPEDNAVYYCAADVYWLPYYYWGQGTLVTVSS | high polyreactivity |
| QVQLVESGGGLVQAGGSLRLSCAASGSIFYWNAMGWYRQAPGKERELVAGISQRGGRTSYADSVKGRFTISRDNAKNTVYLQMNSLKPEDTAVYYCAATSVYPRSGSSRYDYWGQGTQVTVSS | low polyreactivity |
| QVHLVESGGGLVQAGGSLLLSCAASGIIFSYYAMGWYRQAPGKERELVAAISRSGVRPYYADSVKGRFTISRDNAKHTVYLQMYSLKPEDTAVYYCNAEFSPYPYDYWGQGTQVSVSS | high polyreactivity |
| QVQLVESGGGLVQAGGSLRLSCAASGRIFWDYAMGWYRQAPGKERELVAVITFSGDSTYYADSVKGRFTISRDNAKNTVYLQMNSLKPEDTAVYYCAAARAIRQFWYVATFEYWGQGTQVTVSS | low polyreactivity |
| QGQLVESCGGLVQAGGSLLLSCAASGRIFRSYAMGGYRPAPGKERELVASMSTGGSTNYADSVKGRFTFSRDTAKNSGYLQKNRLKPEDTAVYYCAAGPYYKYWGQRYNYWGQGTQVTVSS | high polyreactivity |
